For 26 sequences, protein stability index results are on record in the supplement of paper PMC9732359.

This data set is described as follows: protein stability index of a GFP-peptide fusion (yeast GPS) (PSI 1-4); higher = more stable; sorted into four equal gates, so the index is relative within each strain. In short, it runs like this: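 The protein stability index of a peptide was calculated by multiplying its read frequency in each gate by that gate's number and adding the products. The peptides were tiled 17-residue stretches of yeast proteins, fused downstream of GFP on a Cherry-expressing plasmid and carried in yeast as a pooled library. Mid-log cultures in leucine-free medium were sorted into four equal gates by GFP/Cherry ratio, and each gate's plasmids were PCR-amplified and Illumina-sequenced.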

± gives the uncertainty stated by the source.

Consider RKEPPATVEECVKLTVR [PRE6], for which the protein stability index reads like this: (doa10∆) 1.45 ± 0.06; (pdr5∆) 1.67 ± 0.074; (san1∆) 1.7 ± 0.2; (ubr1∆) 1.43 ± 0.055.

As for RKFERARGRRRSKGFKV [RPL18A], the protein stability index runs as follows: (doa10∆) 3.28 ± 0.1; (pdr5∆) 3.24 ± 0.094; (san1∆) 3.54 ± 0.12; (ubr1∆) 3.15 ± 0.059.

In the case of RKFHELNDHIDDFEVNV [GRR1], the protein stability index worked out at 3.07 ± 0.097 (doa10∆), 3.18 ± 0.1 (pdr5∆), 2.42 ± 0.16 (san1∆) and 3.08 ± 0.073 (ubr1∆).

As to RKHHKKGITEEVAKKRS [RPL24A], the protein stability index runs as follows: (doa10∆) 3.36 ± 0.12; (pdr5∆) 3.45 ± 0.2; (san1∆) 3.19 ± 0.17; (ubr1∆) 3.02 ± 0.092.

Consider RKHKRVSPNAAPRQEIS [YAR002W/NUP60], for which the protein stability index was determined as 2.92 ± 0.08 (doa10∆), 2.89 ± 0.056 (pdr5∆), 2.92 ± 0.046 (san1∆) and 2.71 ± 0.063 (ubr1∆).

Consider RKKARTFDSSWNWAKQS [FAS2], for which the protein stability index reads like this: (doa10∆) 1.79 ± 0.14; (pdr5∆) 1.97 ± 0.12; (san1∆) 2.32 ± 0.12; (ubr1∆) 2.95 ± 0.074.

On to RKRAHSLVSTQSSSSTR [REC8], for which the protein stability index reads like this: (doa10∆) 2.86 ± 0.069; (pdr5∆) 2.94 ± 0.068; (san1∆) 2.77 ± 0.051; (ubr1∆) 2.92 ± 0.068.

Take RKRCKGTVGNSHKTTKE [RPL11A]: the protein stability index is, setting by setting: (doa10∆) 2.94 ± 0.28; (pdr5∆) 3 ± 0.17; (san1∆) 2.99 ± 0.16.

Take RLELLQLSPVKNSRVEL [SMC4]: the protein stability index runs as follows: (pdr5∆) 3.54 ± 0.25; (san1∆) 3.22 ± 0.13.

RLIDLSGCENITDKTIE [GRR1] came in with a protein stability index (doa10∆) of 3.05 ± 0.068, a protein stability index (pdr5∆) of 3.21 ± 0.093, a protein stability index (san1∆) of 2.85 ± 0.079 and a protein stability index (ubr1∆) of 2.88 ± 0.093.

Regarding RLKFGHRLIATHTNLER [SNF2], the protein stability index was found to be 2.41 ± 0.064 (doa10∆), 2.04 ± 0.054 (pdr5∆), 2.29 ± 0.067 (san1∆) and 2.5 ± 0.045 (ubr1∆).

Regarding RLRTLCRDSDDHKRFIV [DIS3], the protein stability index runs as follows: (doa10∆) 2.68 ± 0.2; (pdr5∆) 2.75 ± 0.13; (san1∆) 2.2 ± 0.27; (ubr1∆) 2.95 ± 0.048.

As for RMFEKNVMLNIYPRTVI [SKI6], the protein stability index (doa10∆) amounted to 2.21 ± 0.14, the protein stability index (pdr5∆) turned out to be 1.37 ± 0.11, the protein stability index (san1∆) stood at 1.06 ± 0.27 and the protein stability index (ubr1∆) is 2.24 ± 0.094.

On to RMHLAPASKQGYLITPP [SSN2], for which the protein stability index is, setting by setting: (doa10∆) 1.36 ± 0.25; (pdr5∆) 1.45 ± 0.24; (ubr1∆) 1.36 ± 0.13.

Regarding RMRIFASNEVIAKSRYW [RPL20A], the protein stability index reads like this: (doa10∆) 2 ± 0.049; (pdr5∆) 2.57 ± 0.065; (san1∆) 2.54 ± 0.068; (ubr1∆) 2.53 ± 0.035.

As to RNAEFKVSKNSTSFKNP [YMR153W/NUP53], the protein stability index is, setting by setting: (doa10∆) 2.79 ± 0.093; (pdr5∆) 2.13 ± 0.062; (san1∆) 2.14 ± 0.1; (ubr1∆) 2.46 ± 0.076.

In turn, RNQVQTENVAQARIILN [YGR119C/NUP57] registered a protein stability index (doa10∆) of 3 ± 0.1, a protein stability index (pdr5∆) of 2.9 ± 0.092, a protein stability index (san1∆) of 3.01 ± 0.05 and a protein stability index (ubr1∆) of 2.78 ± 0.042.

As for RNSKTVREFLEKNYDRK [PRE6], the protein stability index (doa10∆) amounted to 3.08 ± 0.27.

Take RNVEQKLNELDELILEA [NNF1]: the protein stability index came to 3.3 ± 0.062 (doa10∆), 3.29 ± 0.059 (pdr5∆), 3.22 ± 0.039 (san1∆) and 3.4 ± 0.046 (ubr1∆).

RPFEGLFVISTEISPMA [RRP45]: the protein stability index runs as follows: (doa10∆) 2.67 ± 0.048; (pdr5∆) 2.87 ± 0.049; (san1∆) 3.04 ± 0.061; (ubr1∆) 2.86 ± 0.037.

On to RPGRIDRKIEFPPPSVA [RPT6], for which the protein stability index runs as follows: (doa10∆) 3.21 ± 0.072; (pdr5∆) 3.26 ± 0.07; (san1∆) 3.05 ± 0.054; (ubr1∆) 3.25 ± 0.048.

Turning to RPHQSRESLIMLLEEQL [MED7], the protein stability index reads like this: (doa10∆) 2 ± 0.081; (pdr5∆) 2.37 ± 0.093; (san1∆) 1.45 ± 0.19; (ubr1∆) 2.12 ± 0.054.

Turning to RPNRRGPRNTEEKGWVP [RPS2], the protein stability index reads like this: (doa10∆) 3.42 ± 0.15; (pdr5∆) 3.49 ± 0.13; (san1∆) 3.68 ± 0.12; (ubr1∆) 3.66 ± 0.079.

For the sequence RPQKLRASLVPGTVLIL [RPL6A], the protein stability index is 2.1 ± 0.066 (doa10∆), 2.32 ± 0.064 (pdr5∆), 2.11 ± 0.077 (san1∆) and 2.45 ± 0.081 (ubr1∆).

As to RQKARTDAHTPLARNYI [RPR2], the protein stability index by setting is: (doa10∆) 2.63 ± 0.054; (pdr5∆) 2.52 ± 0.058; (san1∆) 2.78 ± 0.049; (ubr1∆) 2.86 ± 0.042.

With RQNKVQHQRIVAFVCSP [RPN10], the protein stability index was 1.24 ± 0.069 (doa10∆), 1.4 ± 0.12 (pdr5∆) and 1.42 ± 0.12 (ubr1∆).
